The text below walks through data of patent US20160068605A1 (Janssen / Centocor, published 2016).

The target of experiment [1] is T1, Recombinant human CD123 SP2 ECD protein (human, UniProt P26951 101-303).
T1 construct: also called rhCD123 SP2; CD123 ECD SP2
T1 sequence: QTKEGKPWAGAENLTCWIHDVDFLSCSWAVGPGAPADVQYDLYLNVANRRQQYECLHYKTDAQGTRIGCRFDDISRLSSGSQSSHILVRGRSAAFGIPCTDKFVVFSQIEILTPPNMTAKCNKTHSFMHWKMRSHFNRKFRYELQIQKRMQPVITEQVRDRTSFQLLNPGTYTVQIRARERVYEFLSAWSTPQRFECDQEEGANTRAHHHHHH
Briefly: SPR Biacore T200, captured antibody. On the procedure: (§1) Kinetic studies were performed at 25° C. using a Biacore T200 (Biacore, Inc., now part of GE Healthcare). […] The carboxymethyl groups of dextran were activated with N-Ethyl-N′-(3-Dimethylaminopropyl)carbodiimide (EDC) and N-hydroxysuccinimide (NHS). The anti-Fc antibody was coupled at pH 4.5 in 10 mM sodium acetate. Any remaining reactive sites on the surface were blocked by reaction with ethanolamine. […] 40-70 RU of antibody were captured. […] Association data was collected for 2 min followed by 10 min of dissociation. The surface was regenerated with 30 μL of 100 mM H3PO4 100 μL/min, followed by 50 mM NaOH. The samples for kinetic analysis were prepared in PBS-based buffer (D-PBS containing 3 mM EDTA and 0.005% surfactant P20). Data reported is the difference in SPR signal between the flow cell containing the captured antibody and a reference cell without captured antibody. Additional instrumental contributions to the signal were removed by subtraction of the data from the blank injection from the reference-subtracted signal. Data were analyzed by fitting association and dissociation phases at all concentrations (global fit) with a 1:1 binding model using the BIAevaluation software (BIAcore, Inc.).
(In general: SPR reads the build-up and loss of mass on a sensor chip optically.)

The target in experiment [2] is T2, Recombinant human CD123 SP1 ECD-His tag protein (human, UniProt P26951 20-305).
T2 construct: bought from R&D Systems (#301-R3/CF); biotinylated for some assays; also called rhCD123 SP1; huCD123 ECD SP1
T2 sequence: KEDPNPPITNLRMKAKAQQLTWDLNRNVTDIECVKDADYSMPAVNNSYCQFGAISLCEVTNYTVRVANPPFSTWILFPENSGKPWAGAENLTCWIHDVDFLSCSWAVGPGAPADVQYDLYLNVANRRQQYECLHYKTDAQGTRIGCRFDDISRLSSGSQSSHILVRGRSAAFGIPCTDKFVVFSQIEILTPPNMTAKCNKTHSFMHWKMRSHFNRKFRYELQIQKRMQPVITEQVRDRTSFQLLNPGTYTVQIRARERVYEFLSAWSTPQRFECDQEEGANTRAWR
Briefly: SPR Biacore T200, captured antibody. On the procedure: as §1

For experiment [3], the target named is T3, human CD123 SP2 ECD displayed on pDisplay-transfected cells (human, UniProt P26951 101-305).
T3 construct: ECD anchored on the surface of stably transfected HEK293 cells; also called hCD123 SP2 cells; pDisplay CD123SP2
T3 sequence: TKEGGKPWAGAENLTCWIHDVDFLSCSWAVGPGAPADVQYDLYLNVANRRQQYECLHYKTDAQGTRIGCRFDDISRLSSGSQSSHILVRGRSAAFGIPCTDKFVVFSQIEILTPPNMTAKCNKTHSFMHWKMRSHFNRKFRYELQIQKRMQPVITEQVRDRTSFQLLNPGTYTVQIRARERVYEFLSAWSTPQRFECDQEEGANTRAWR
Briefly: MSD-CAT on pDisplay cells. On the procedure:
(§2) The MSD-CAT was developed in-house as a label-free method to determine affinity using intact cells in a high throughput format. […] Cell lines used were human pDisplay CD123SP1 and pDisplay CD123SP2. […] These samples were prepared in DMEM Glutamax medium containing 0.05% Azide, 1% BSA, 3 mM EDTA. […] After equilibration the plate was centrifuged for 5 minutes ˜1000 rpm and free anti-CD3 detected on the supernatant. […] The assay buffer was removed without washing and 50 uL/well of 0.7 ug/mL of biotinylated antigen in assay buffer were added to MSD plates and incubated overnight (˜16 hours at 4° C.).

Experiment [4] concerns the target T4, human CD123 SP1 ECD displayed on pDisplay-transfected cells (human, UniProt P26951 20-305).
T4 construct: ECD anchored on the surface of stably transfected HEK293 cells by the PDGFR transmembrane domain; also called hCD123 SP1 cells; hCD123 cells
T4 sequence: T2 sequence
As to the kind of experiment: MSD-CAT on pDisplay cells. How it is done:
as §2

Experiment [5] deals with T5, cell-surface CD3 epsilon on primary cynomolgus T cells (cynomolgus monkey, UniProt Q95LI5 22-198).
T5 construct: whole, on cells; also called cynomolgus CD3e; Cyno T-cells
T5 sequence (Q95LI5 22-198): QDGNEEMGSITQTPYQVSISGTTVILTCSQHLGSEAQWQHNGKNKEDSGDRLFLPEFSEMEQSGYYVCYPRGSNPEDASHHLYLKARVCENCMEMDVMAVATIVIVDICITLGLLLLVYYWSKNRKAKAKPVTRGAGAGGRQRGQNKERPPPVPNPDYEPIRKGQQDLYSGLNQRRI
As to the kind of experiment: flow cytometry competition with labeled CD3B146 on T cells. An excerpt:
(§3) The format involved competition binding using a fixed concentration of labeled anti-CD3 mAb of known affinity and increasing concentrations of unlabeled test Abs (Ashkenazi A et al. PNAS: 88:10535, 1991.).

For experiment [6], the target named is T6, cell-surface CD3 epsilon on primary human T cells (human, UniProt P07766 23-207).
T6 construct: whole, on cells; part of the CD3/TCR complex on the cells
T6 sequence (P07766 23-207): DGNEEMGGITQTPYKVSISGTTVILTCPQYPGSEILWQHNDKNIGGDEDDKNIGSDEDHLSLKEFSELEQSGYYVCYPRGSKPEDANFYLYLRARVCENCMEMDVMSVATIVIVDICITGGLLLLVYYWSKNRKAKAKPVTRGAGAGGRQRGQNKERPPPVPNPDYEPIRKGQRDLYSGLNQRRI
The description is as above.
Text: as §3

The target of experiment [7] is T6, cell-surface CD3 epsilon on primary …. As to the kind of experiment: competition flow cytometry on primary human T cells (Human Donor 10357); competitor displaced: Alexa Fluor 488-labelled CD3B146.
Text: as §3

Substitutions are numbered along the chain they refer to.

B1: bispecific antibody Ab 3978 (bispecific antibody, human IgG4 S228P, kappa, lambda, F234A L235A)
heavy 1: EVQLLESGGGLVQPGGSLRLSCAASGFTFNTYAMNWVRQAPGKGLEWVARIRSKYNNYATYYADSVKGRFTISRDNSKNTLYLQMNSLRAEDTAVYYCVKHGNFGNSYVSWFAYWGQGTLVTVSSASTKGPSVFPLAPCSRSTSESTAALGCLVKDYFPEPVTVSWNSGALTSGVHTFPAVLQSSGLYSLSSVVTVPSSSLGTKTYTCNVDHKPSNTKVDKRVESKYGPPCPPCPAPEAAGGPSVFLFPPKPKDTLMISRTPEVTCVVVDVSQEDPEVQFNWYVDGVEVHNAKTKPREEQFNSTYRVVSVLTVLHQDWLNGKEYKCKVSNKGLPSSIEKTISKAKGQPREPQVYTLPPSQEEMTKNQVSLTCLVKGFYPSDIAVEWESNGQPENNYKTTPPVLDSDGSFLLYSKLTVDKSRWQEGNVFSCSVMHEALHNHYTQKSLSLSLGK
light 1: QAVVTQEPSLTVSPGGTVTLTCRSSTGAVTTSNYANWVQQKPGQAPRGLIGGTNKRAPGTPARFSGSLLGGKAALTLSGAQPEDEAEYYCALWYSNLWVFGGGTKLTVLGQPKAAPSVTLFPPSSEELQANKATLVCLISDFYPGAVTVAWKADSSPVKAGVETTTPSKQSNNKYAASSYLSLTPEQWKSHRSYSCQVTHEGSTVEKTVAPTECS
heavy 2: not shown
light 2: EIVLTQSPGTLSLSPGERATLSCRASQSVSSSYLAWYQQKPGQAPRLLIYGASSRATGIPDRFSGSGSGTDFTLTISRLEPEDFAVYYCQQDYGFPWTFGQGTKVEIKRTVAAPSVFIFPPSDEQLKSGTASVVCLLNNFYPREAKVQWKVDNALQSGNSQESVTEQDSKDSTYSLSSTLTLSKADYEKHKVYACEVTHQGLSSPVTKSFNRGEC
notes: IgG4-PAA; CD3 arm of CD3B217 (first heavy and light chain), CD123 arm of I3RB217 (I3RB18)
What is called Kd is the equilibrium constant for the complex coming apart. By koff is commonly meant the first-order rate constant of dissociation. The term kon denotes a measure of how fast the partners come together. Turning to B1, the Kd was determined as 0.356 nM in experiment [1]; 1.47 nM in experiment [2]; 0.528 nM in experiment [3]; 0.153 nM in experiment [4]; 215 nM in experiment [5]; 241 nM in experiment [6]. Further, the results for the off-rate (koff) in experiment [1] and in experiment [2] were 0.0011 s⁻¹ and 0.00083 s⁻¹, respectively. The on-rate (kon) in experiment [1] turned out to be 3.12e+06 M⁻¹ s⁻¹; in experiment [2], 564000 M⁻¹ s⁻¹.

B2: bispecific antibody Ab 8876 (bispecific antibody, human IgG4 S228P, kappa, lambda, F234A L235A)
heavy 1: B1 heavy 1
light 1: B1 light 1
heavy 2: not shown
light 2: not shown
notes: also called 8876I
On to B2, for which the Kd in experiment [1] worked out at 1.75 nM; in experiment [2], 14.4 nM; in experiment [3], 2.45 nM; in experiment [4], 1.29 nM; in experiment [5] it was 110 nM; in experiment [6], 169 nM. For the same molecule, the dissociation rate constant (koff) in experiment [1] was found to be 0.005 s⁻¹; in experiment [2], 0.0049 s⁻¹. For the same molecule, the kon in experiment [1] worked out at 2.83e+06 M⁻¹ s⁻¹; in experiment [2], 343000 M⁻¹ s⁻¹.

B3: bispecific antibody Ab 7955 (bispecific antibody, human IgG4 S228P, kappa, lambda, F234A L235A)
heavy 1: B1 heavy 1
light 1: B1 light 1 with A2T, A80V
heavy 2: not shown
light 2: B1 light 2
notes: IgG4-PAA; CD3 arm of CD3B218, CD123 arm of I3RB217 (I3RB18)
In the case of B3, the equilibrium dissociation constant (Kd) was found to be 0.344 nM in experiment [1]; 1.49 nM in experiment [2]; 0.436 nM in experiment [3]; 0.136 nM in experiment [4]; 169 nM in experiment [5]; 210 nM in experiment [6]. The koff in experiment [1] came to 0.0011 s⁻¹; in experiment [2], 0.00084 s⁻¹. In addition, the results for the on-rate constant (kon) in experiment [1] and in experiment [2] were 3.33e+06 M⁻¹ s⁻¹ and 562000 M⁻¹ s⁻¹, respectively.

B4: bispecific antibody Ab 7959 (bispecific antibody, human IgG4 S228P, kappa, lambda, F234A L235A)
heavy 1: B1 heavy 1 with L5V, D64A, N76D, T80S, R89K, A90T, V99A, K100R
light 1: B1 light 1 with A2T, A80V
heavy 2: not shown
light 2: B1 light 2
notes: IgG4-PAA; CD3 arm of CD3B219, CD123 arm of I3RB217 (I3RB18)
Turning to B4, the Kd in experiment [1] stood at 0.335 nM; in experiment [2] it was 1.53 nM; in experiment [3], 0.461 nM; in experiment [4], 0.149 nM; in experiment [5] it was 11.2 nM; in experiment [6] it was 11 nM. In addition, the figures for the dissociation rate constant (koff) in experiment [1] and in experiment [2] were 0.0013 s⁻¹ and 0.00088 s⁻¹, respectively. Further, the kon in experiment [1] came out at 3.78e+06 M⁻¹ s⁻¹; in experiment [2], 579000 M⁻¹ s⁻¹. In experiment [7], the “IC50 (read off the curve)” value was roughly 20 nM.

B5: bispecific antibody Ab 5466 (bispecific antibody, human IgG4 S228P, kappa, lambda, F234A L235A)
heavy 1: EVQLVESGGGLVQPGGSLKLSCAASGFTFNTYAMNWVRQASGKGLEWVGRIRSKYNAYATYYAASVKGRFTISRDDSKNTAYLQMNSLKTEDTAVYYCTRHGNFGNSYVSWFAYWGQGTLVTVSSASTKGPSVFPLAPCSRSTSESTAALGCLVKDYFPEPVTVSWNSGALTSGVHTFPAVLQSSGLYSLSSVVTVPSSSLGTKTYTCNVDHKPSNTKVDKRVESKYGPPCPPCPAPEAAGGPSVFLFPPKPKDTLMISRTPEVTCVVVDVSQEDPEVQFNWYVDGVEVHNAKTKPREEQFNSTYRVVSVLTVLHQDWLNGKEYKCKVSNKGLPSSIEKTISKAKGQPREPQVYTLPPSQEEMTKNQVSLTCLVKGFYPSDIAVEWESNGQPENNYKTTPPVLDSDGSFLLYSKLTVDKSRWQEGNVFSCSVMHEALHNHYTQKSLSLSLGK
light 1: B1 light 1
heavy 2: not shown
light 2: not shown
For the molecule B5, the Kd worked out at 1.69 nM in experiment [1]; 13.7 nM in experiment [2]; 1.72 nM in experiment [3]; 2.43 nM in experiment [4]; 25.3 nM in experiment [5]; 27.9 nM in experiment [6]. Besides, the dissociation rate constant (koff) in experiment [1] amounted to 0.0049 s⁻¹; in experiment [2] it was 0.0051 s⁻¹. Further, the figures for the on-rate (kon) in experiment [1] and in experiment [2] were 2.88e+06 M⁻¹ s⁻¹ and 371000 M⁻¹ s⁻¹, respectively. For the same molecule, the “IC50 (read off the curve)” value in experiment [7] is roughly 70 nM.

B6: bispecific antibody Ab 4435 (bispecific antibody, human IgG4 S228P, kappa, lambda, F234A L235A)
heavy 1: B1 heavy 1
light 1: B1 light 1 with A2T, A80V
heavy 2: not shown
light 2: not shown
For B6, the dissociation constant Kd in experiment [1] came out at 1.74 nM; in experiment [2], 14.3 nM; in experiment [3] it was 3.7 nM; in experiment [4] it was 1.53 nM; in experiment [5] it was 139 nM; in experiment [6], 174 nM. Further, the koff in experiment [1] was 0.005 s⁻¹; in experiment [2], 0.0048 s⁻¹. The kon in experiment [1] stood at 2.88e+06 M⁻¹ s⁻¹; in experiment [2], 337000 M⁻¹ s⁻¹.

B7: bispecific antibody 9958 Ab (bispecific antibody, human IgG4 S228P, kappa, lambda, F234A L235A)
heavy 1: B5 heavy 1
light 1: B1 light 1
heavy 2: not shown
light 2: B1 light 2
notes: IgG4-PAA; CD3 arm of CD3B220, CD123 arm of I3RB217 (I3RB18)
As to B7, the dissociation constant (Kd) amounted to 0.311 nM in experiment [1]; 1.34 nM in experiment [2]; 0.538 nM in experiment [3]; 0.121 nM in experiment [4]; 29.1 nM in experiment [5]; 43 nM in experiment [6]. Besides, the koff was determined as 0.0011 s⁻¹ in experiment [1] and 0.00079 s⁻¹ in experiment [2]. The on-rate (kon) in experiment [1] was 3.57e+06 M⁻¹ s⁻¹; in experiment [2], 587000 M⁻¹ s⁻¹. In experiment [7], the “IC50 (read off the curve)” value was roughly 80 nM.
